# Measurements reported in paper PMC9613979, “Endothelial alpha globin is a nitrite reductase” (Nature Communications, 2022).
# No end group written: not given here. Alexa Fluor 488 = Alexa Fluor 488 fluorescent dye tag
# T1: recombinant eNOS oxygenase domain
# T1 chain: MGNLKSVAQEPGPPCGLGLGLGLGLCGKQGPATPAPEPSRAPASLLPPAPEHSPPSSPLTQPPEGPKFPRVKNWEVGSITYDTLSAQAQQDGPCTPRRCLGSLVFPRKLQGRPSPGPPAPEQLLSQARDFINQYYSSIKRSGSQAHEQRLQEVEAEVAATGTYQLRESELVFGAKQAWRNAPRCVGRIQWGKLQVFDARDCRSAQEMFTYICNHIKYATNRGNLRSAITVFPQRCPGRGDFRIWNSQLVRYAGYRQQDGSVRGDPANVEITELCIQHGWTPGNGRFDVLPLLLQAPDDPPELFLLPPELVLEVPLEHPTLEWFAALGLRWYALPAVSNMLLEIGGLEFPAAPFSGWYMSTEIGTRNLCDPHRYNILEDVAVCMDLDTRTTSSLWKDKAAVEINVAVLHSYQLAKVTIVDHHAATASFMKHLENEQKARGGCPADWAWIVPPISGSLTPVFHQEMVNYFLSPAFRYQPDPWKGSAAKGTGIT
# B1: alpha globin mimetic peptide (alpha globin binding sequence LSFPTTKTYF) (peptide)
# peptide: LSFPTTKTYF-{Alexa Fluor 488}
# notes: source: synthetic peptide (AnaSpec)
# Biological target: T1, recombinant eNOS oxygenase domain
# Test: fluorescence polarisation; 1 μM recombinant oxygenase domain of eNOS incubated with peptide labelled with Alexa Fluor 488 at the C-terminus; SpectraMax M5 plate reader; triplicate measurements per concentration
# Conditions: both partners purified
binder,measurement,value
B1,Kd,16.8 nM
